Laboratory results published in the RNAGym collection of RNA variant scans (doi:10.1073/pnas.2313332121).
This sample holds only a part of the variants without activity.

B1: TPR 5TU (parent)
chain: GGAUCUUCUCGAUCUAACAAAAAAGACAAAUCUGCCACAAAGCUUGAGAGCAUCUUCGGAUGCAGAGGCGGCAGCCUUCGGUGGCGCGAUAGCGCCAACGUUCUCAACUAUGACACGCAAAACGCGUGCUCCGUUGAAUGGAGUUUAUCAUG

Variants of: B1
Assay: polymerase ribozyme fitness, log enrichment relative to wild type (log ratio); higher = more active; in vitro selection for triplet polymerase activity
Summary of the method: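 Fitness measures genotype enrichment against wild-type enrichment on a logarithmic scale, with inverse-variance-weighted averaging of replicates. The logarithm is base 2, and genotypes were kept only with ≥10 input reads and ≥1 read per output in Illumina sequencing. The sequenced libraries came from one triplicate in vitro selection round, including frozen incubation at −7 °C, of PCR-built, transcribed mutant libraries of each subunit of a heterodimeric triplet polymerase ribozyme.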

Variant | polymerase ribozyme fitness (log ratio)
A37U A89C U148A | ≤ -4.2
A37C C118U A121G | 0.0889
C38A C57A G83A | -0.895
C38G A47C | -0.652
C38A C93A C131G A150U | ≤ -4.2
A37U A40G C76G C93A C103G | ≤ -4.2
C36A C51G C85A | ≤ -4.2
C35U A41U C54U C76G C85A A98G | ≤ -4.2
C38U A73U A107C C108U A115G | ≤ -4.2
C36U A52U U53C C79U A91U U135A | ≤ -4.2
C36U C87U C93A C95G | ≤ -4.2
C35U U55G A60C A91U A119G A121U C149G | ≤ -4.2
A37C G58A | 0.575
A37G C87U G136U | -3.7
C35U A39U G50A C51U G83A C123U | ≤ -4.2
A37G G92U | -2.01
C35U G68U U90G G117A U144G | ≤ -4.2
C38U C54U G58C C85U C105G U144C | -2.92
A37U C96U | -1.52
C36U C76U G124U | -1.95
C36A G143U | -4.12

Variant | polymerase ribozyme fitness (log ratio)
C38A G59U C85U U90C | ≤ -4.2
A37G C76U G80U C105U A122U | ≤ -4.2
A37G C96G | -1.89
C35U G58U C87U C114A A119C | -4
A37U G80C A91C A150U | ≤ -4.2
A37G A40G A41G C76U C87U C93G C125G | ≤ -4.2
A37C G84U | -2.07
A37G C57G C69A C85U A120U | -3.21
C35U G83C | -1.43
C38G A41U C93G A110C | ≤ -4.2
A37U C72A G126C | ≤ -4.2
C35U U144G | 1.13
C35U U144A | -0.455
C38G C85G | -2.66
C36A U56G C103G A142G G143C | ≤ -4.2
C36G A52C C95U U148A A150U | ≤ -4.2
C35U G70A G83A C116G A120C U134A | ≤ -4.2
C38A C51U C95U G124C | -1.51
A37U C95U A122G | -1.77
C38G U53A G80A | -2.37
C38A A147C | -1.26

Variant | polymerase ribozyme fitness (log ratio)
C36U C96G G117U G152A | -3.09
C36A U55A | -3.27
C36U U82A G83A G84A G86U C93A C96U G117U | -3.98
A37U A39G A40U C93U C105G A110U A138U | ≤ -4.2
C35U G92A | -3.33
C36A C79U G88C A113G A150U | ≤ -4.2
A37G G84U G92A U102G G117U G140A U144A | ≤ -4.2
A37G G141U U145G | -3.34
A37C G84U A120G | -2.19
C35U A60C A98U A142G | -2.28
C36U C85U | -1.83
C36U C85A | -2.75
A37C U55G G81A C87A A106C A107U G143U | ≤ -4.2
C36U G65C U102G G140C C149G | ≤ -4.2
A37C C75U U77G A89C C93A A121C U148G U151G | ≤ -4.2
C36U C57G C69A U134C | -2.32
C38A A52G C63A | -1.26
A37U G58C | -0.362
C38A G80U C125U | -2.34
A37G A49U C51U C85U G92A C96A A97G U144A U146G | ≤ -4.2
C38A A89U C93A G128A | ≤ -4.2

Variant | polymerase ribozyme fitness (log ratio)
C35U G58A A150G | -1.55
C35U A107U | -4.03
A37G G84U U104G C118G | ≤ -4.2
C38A C63A U90A G124U | ≤ -4.2
C38G U53A G70A G92A A107C | ≤ -4.2
C35U U61A | -1.27
A37C G42U G58A C96A G117U U146A | ≤ -4.2
A37U G65A A66U U77G G84A | ≤ -4.2
A37G A52G C54A | -2.77
C38U A60U | -1.14
C35G G94U A97U | -4.17
A37U A49C A73U C75G A106C | ≤ -4.2
A37C A41U G50C G81U C95U U111A C118G U127C A142C | ≤ -4.2
C38A A41C C54A G136U | -4.11
C36U C57A | -0.483
A37C A52G G84C U130A G143C | ≤ -4.2
C38G G59C C63U G83U U90G G126U | ≤ -4.2
C36A C57A C79A G83U C93G C114U | ≤ -4.2
C36U A49U C79A A106U A147C | ≤ -4.2
C36U A41C A47C A49U U55A C76G G94A A110C A113G U148G | -4.13
C36U A66G C87U C93U U135A | ≤ -4.2
